In patent US20260022144A1, “ANALGESIC POLYPEPTIDE” (Shanghai Puyou Biomedical Co., Ltd., priority 2022, published 2026):

Legend:
[1] = system: VZV-induced pain model in rats; assay: VZV-induced pain model in rats, mechanical allodynia (von Frey) test; type: in vivo, rat; conditions: for 50% PWT (paw withdrawal threshold), analgetic effect: vs placebo
Experimental: A summary of the method for inducing pain model in rats by means of subcutaneous VZV inoculation is provided hereinafter. Briefly, male Sprague Dawley (SD) rats were deeply anesthetized by intraperitoneal injection of a Zoletil R: 50 (30 mg/kg)/xylazine (6 mg/kg) anesthetic at an injection volume of 6 mL/kg, and then the virus inoculation was performed by subcutaneous injection at the footpad area. The infection dose was 22800 TCID50 per animal, and the infection volume was 150 μL for all rats.
Administration was performed on alternate days. Briefly, the test articles were administered by subcutaneous injection at the footpad area on Day 1 and Day 3, respectively. As for Group 2, the administration of SEQ ID NO: 29 was initiated from the first concentration. Namely, the first concentration (10 μg/mL) was administered on Day 1, and the second concentration (20 μg/mL) was administered on Day 3. Pain was measured once after each administration.
Mechanical allodynia tests (also called “von Frey tests”) for pain measurements were performed on the rats one hour after administration of the test articles on Day 1 and Day 3, respectively. In the behavioral test for rats, mechanical allodynia is expressed as the 50% paw withdrawal threshold (PWT), which is calculated according to the following formula:
[formula] • wherein • Xf=final test fiber value used in the test • k=tabular value for the pattern of positive/negative responses (Chaplan et al. 1994, page 62) • δ=mean difference.
Briefly, the rats were placed individually in plexiglass boxes with a grid at the bottom to ensure that the rats' feet could be tested. The rats were acclimated to the environment for 15 minutes prior to the test. After the acclimation was completed, pain (mechanical allodynia) was tested on the center of the sole of the left hind foot of the rats using test fibers. The test fibers included 8 test strengths: 3.61 (0.4 g), 3.84 (0.6 g), 4.08 (lg), 4.31 (2 g), 4.56 (4 g), 4.74 (6 g), 4.93 (8 g) and 5.18 (15 g). During the test, the test fibers were pressed vertically against the skin and forces were applied to bend the fibers for 6-8 seconds with a 5-second interval between each test. During the test, a pain response was recorded if the animals quickly withdrew their feet. The pain response was also recorded if the animal withdrew their feet as the test fibers left the animal's skin. The pain response was not recorded if the animal moved or ambulated, and the test should be repeated. The test was started with 4.31 (2 g). If the animal had pain response, the next test should be performed with a test fiber with a lower strength: if the animal has no pain response, the next test should be performed with a test fiber with a higher strength. The maximum strength of the tested fibers was 5.18 (15 g). The test results were recorded in a table, wherein the presence of pain response was recorded as “x”, and the absence of pain response was recorded as “0”.
The rats were randomly divided into 2 groups, with 8 rats in the placebo group (Group 1, administered with vehicle (normal saline)) and 8 rats in the treatment group (Group 2, administered with 30 mg SEQ ID NO: 29/kg). Briefly, the test articles were administered to the rats on a single day by intravenous injection.
Mechanical allodynia tests were performed on the rats 0.5 h after administration of the test articles according to the method as recited in Example 1, respectively.
The rats were randomly divided into 3 groups, with 8 rats in the placebo group (Group 1, administered with vehicle (normal saline)) and 16 rats in the treatment groups (Groups 2 and 3, 8 rats/group, administered with various polypeptides). Briefly, vehicle (normal saline) was administered to the rats from Group 1 and various polypeptides were administered to the rats from Group 2 (SEQ ID: 29, SEQ ID: 57 and SEQ ID: 49; 10 mg polypeptide/kg) and 3 (SEQ ID: 75 and SEQ ID: 28: 10 mg polypeptide/kg) on a single day by intravenous injection.

[2] = system: eye pain (ocular neuropathic pain) model induced by benzalkonium chloride in mice; assay: Eye pain model induced by benzalkonium chloride in mice, scratching behavior test; type: in vivo, mouse; conditions: eye drops TID, 30 μg/ml, 10 μL (0.3 μg/eye/each time), after 2 days of treatment, 2M NaCl challenge, vs model group
Experimental: C57BL/6JNifdc mice were used in the experiment. Briefly, each of the mice was fixed with one hand, with one eye prop opened with the other hand (and fixed with another lab technician). The modeling drug, i.e., 0.1% benzalkonium chloride was dripped into one eye (twice a day (9:00, 17:00), 10 μL each time) and maintained for 30 seconds. The operation was repeated for six days.
In order to evaluate the pathological changes at the front of the mice's eyes, slit lamp photos were taken on the third day since the beginning of modeling. According to the photographic results, the mice's eyes were scored from three viewing angles, including corneal opacity (0: clear, 1: visible opacity, 2: difficult to find, 3: pupil invisible), conjunctival edema (0: absent, 1: slight edema, 2: edema, 3: severe edema) and congestion (0: absent, 1: slight congestion, 2: congestion, 3: severe congestion, 4: hemorrhage), to access and evaluate the damages at the front of the mice's eyes. The mice were then randomized into groups. […]
Scratching behavior test: The eyes were administered for two consecutive days. […] After acting for 5 seconds, the mice were released back into the cage, and the numbers of wipes over the eyes within 30 seconds were counted.

B1: SEQ ID NO: 29: exemplary polypeptide of the present disclosure; artificial polypeptide of formula (I) X-Y (protein)
chain: SEKKQPVDLGLLEEDDEFEEFPAEDWAGLDEDEDAHVWEDNWDDDNVEDDFSNQLRATVLLMILVAETPYGAYVLHQKGRMASAFLAA
analgetic effect (50% PWT) ([1]; 10 mg polypeptide/kg i.v., single administration, tested 0.5 h after administration): apparent analgetic effect
50% PWT (paw withdrawal threshold), analgetic effect ([1]; 30 mg/kg i.v., single administration, tested 0.5 h after administration): significantly increased the 50% PWT values of the rats
50% PWT (paw withdrawal threshold), analgetic effect ([1]; s.c. (footpad) 10 then 20 μg/mL, 50 μL, tested 1 h after administration): increased the 50% PWT values of the rats in a dose-dependent manner
numbers of wipes over the eyes within 30 seconds [2]: significantly decreased numbers of wiping over the eyes (P<0.01)
